Assay results from patent US20200308301A1 (Novartis, published 2020).
Substitutions are numbered along the chain they refer to.

B1: IDT1 (Fab, V domains shown)
VH: QVQLLESGGGLVQPGGSLRLSCAASGFTFSDYAMSWVRQAPGKGLEWVSVIDYSSSNTYYADSVKGRFTISRDNSKNTLYLQMNSLRAEDTAVYYCAREGYSYRSIRFDYWGQGTLVTVSS
VL: DIQMTQSPSSLSASVGDRVTITCRASQSISSNLNWYQQKPGKAPKLLIYAASNLQSGVPSRFSGSGSGTDFTLTISSLQPEDFATYYCLQFDHTPFTFGQGTKVEIKR
notes: Fab (heavy chain is VH-CH1); also called anti-NOV1401 Fab IDT1
B2: IDT3 (Fab, V domains shown)
VH: QVQLVESGGGLVKPGGSLRLSCAASGFTFQSAAVHWVRQAPGKGLEWVGRIKSKADGGTTDYAAPVKGRFTISRDDSKNTLYLQMNSLKTEDTAVYYCARDSPSISSYSIPYFSGMDVWGQGTLVTVSS
VL: DIQMTQSPSSLSASVGDRVTITCRASQGIRAWLNWYQQKPGKAPKLLIYAASSLQSGVPSRFSGSGSGTDFTLTISSLQPEDFATYYCHQYITHPPTFGQGTKVEIKR
notes: Fab; also called anti-NOV1401 Fab IDT3
B3: IDT12 (antibody, human IgG1, kappa, V domains shown)
VH: B2 VH with Q30S
VL: B2 VL
notes: also called anti-NOV1401 IgG IDT12; full length IgG format for IDT2
B4: NOV1401 (antibody, human IgG1, lambda, V domains shown)
VH: QVQLLESGGGLVQPGGSLRLSCAASGFTFSTAAMSWVRQAPGKGLEWVSGISGSGSSTYYADSVKGRFTISRDNSKNTLYLQMNSLRAEDTAVYYCARELSYLYSGYYFDYWGQGTLVTVSS
VL: QSVLTQPPSASGTPGQRVTISCSGSSSNIGSNDVSWYQQLPGTAPKLLIYKNYNRPSGVPDRFSGSKSGTSASLAISGLQSEDEADYYCSAWDQRQFDVVFGGGTKLTVLG
notes: It was amine-coupled to the chip in SPR, and used soluble and biotinylated in SET; also called anti-FXI/FXIa antibody NOV1401; anti-Factor XI/FXIa antibody NOV1401

Assays:
NOV1401 [1] = target: B4; assay: cell-based or functional assay
NOV1401 [2] = target: B4; assay: Solution equilibrium titration (SET), 1:1 fit, average
Procedure: (§1) 14 serial (2×) dilutions of NOV1401 were prepared in sample buffer (PBS pH 7.4 containing 0.5% (w/v) BSA and 0.02% Tween 20) and a constant concentration of the anti-NOV1401 Fab or IgG was added to each NOV1401 concentration ranging from 40 pM to 240 pM. Optimal constant anti-NOV1401 Fab or IgG concentrations and optimal starting concentrations for NOV1401 dilution series were determined in pilot experiments.
(§2) After incubation and three times washing with PBST (PBS containing 0.05% Tween 20) 30 μl/well of the NOV1401/anti-NOV1401 Fab or IgG preparation was transferred from the polypropylene MTP to the NOV1401-coated SA plate and incubated for 30 min at RT on a MTP shaker. After three additional wash steps, 30 μl of 0.5 μg/ml detection antibody (Goat anti-human Kappa LC-HRP, BETHYL # A80-115P) diluted in sample buffer was added to each well and incubated for 1 h at RT with shaking. After washing the plate again three times, 30 μl of detection reagent (LumiGLO Peroxidase Chemiluminescent Substrate, KPL #54-61-01) was added to each well. Electrochemiluminescence (ECL) signals were generated and detected immediately with a luminescence imager (SpectraMax M5, Molecular Devices, LLC).
Average ECL-signals were calculated from duplicate measurements within each assay. Data were baseline adjusted by subtracting the lowest value from all data points and plotted against the corresponding antigen concentration. KD values were determined by fitting the plot with the following non-linear curve fitting model for 1:1 binding according to Haenel et al 2005: […]

[3] = target: T1, Human plasma-derived FXIa (human, UniProt P03951 19-625); assay: SPR, FXIa immobilized on GLC chip
T1 construct: also called Factor XIa
Procedure: SPR experiments were performed in principle as described in Example 2 with the following changes. Human plasma-derived FXIa was used as ligand and immobilized on an activated ProteOn GLC sensor chip (Bio-Rad Laboratories, Inc.) using standard amine coupling procedures as described and by injecting FXIa at a concentration of 10 μg/ml in 20 mM sodium acetate, pH 5.0 and at a flow rate of 30 μl/min for 10 min.
For binding competition studies NOV1401 and three mixture of NOV1401 with anti-NOV1401 Fab at molar ratios of 1:1, 1:2, and 1:10 were prepared in PBS/T buffer and injected in simultaneously onto surfaces with immobilized FXI at a flow rate of 100 μL/min. Sensorgrams were recorded for association and dissociation times of 220 s and 1800 s, respectively. Blank surfaces were used for background corrections.

NOV1401 [4] = target: B4; assay: cell-based or functional assay; remark: listed apart in the source
NOV1401 [5] = target: B4; assay: SPR (ProteOn XPR36), NOV1401 immobilized, Fab as analyte, 1:1 Langmuir fit, average
Procedure: SPR binding experiments were performed on a ProteOn XPR36 instrument (Bio-Rad Laboratories, Inc.) in PBS/T buffer (50 mM phosphate, 150 mM NaCl, pH 7.4, 0.005% v/v Tween-20) at 25° C. NOV1401 (‘Ligand’) was immobilized onto an activated ProteOn GLC sensor chip (Bio-Rad Laboratories, Inc.) using standard amine coupling procedures as described by the manufacturer. Briefly, NOV1401 was injected at a concentration of 10 μg/ml in 20 mM sodium acetate, pH 5.0 and at a flow rate of 30 μl/min for 10 min. Unreacted groups were blocked by injecting 1 M ethanolamine.
For kinetic studies anti-NOV1401 Fabs (‘Analytes’) were diluted in PBS/T buffer to generate a dilution series with concentrations ranging from 0.125-4 nM. Fabs were injected onto surfaces with immobilized NOV1401 at a flow rate of 100 μL/min and sensorgrams were recorded for association and dissociation times of 220 s and 1800 s, respectively. Blank surfaces were used for background corrections. There was no need to regenerate surfaces since the ProteOn protein interaction array system allows to run up to six binding experiments on an identical surface in parallel.
Data processing and analysis including kon, koff, and KD determination were performed with the ProteOn Manager™ software version 3.1.0.6.

NOV1401 [6] = target: B4; assay: Solution equilibrium titration (SET), IgG, 1:1 fit, average
Procedure: as §1
as §2, with “After washing the plate again three times, 30 μl of detection reagent (LumiGLO Peroxidase Chemiluminescent Substrate, KPL #54-61-01) was added to each well.” left out
Average ECL-signals were calculated from duplicate measurements within each assay. […] KD values were determined by fitting the plot with the following non-linear curve fitting model for 1:1 binding according to Haenel et al 2005: […]

IDT8 = target: T2, IDT8; assay: SET: soluble NOV1401 titrated against constant IDT8 Fab; competitor is plate-bound biotinylated NOV1401; free Fab read as RLU
T2 construct: Fab; also called anti-NOV1401 Fab IDT8
Procedure: as §1
(§3) 30 µl/well of each dilution mix was distributed in duplicates to a 384-well polypropylene Eppendorf microplate (MTP). Sample buffer served as negative control and a sample containing no antigen as positive control (Bmax). The plate was sealed and incubated overnight at RT on a plate shaker.
as §2, with “After washing the plate again three times, 30 μl of detection reagent (LumiGLO Peroxidase Chemiluminescent Substrate, KPL #54-61-01) was added to each well.” left out

[7] = target: Human FXI in normal human plasma (human, UniProt P03951 19-625); assay: cell-based or functional assay
IDT4 = target: T3, IDT4; assay: SET: soluble NOV1401 titrated against constant IDT4 Fab; competitor is plate-bound biotinylated NOV1401; free Fab read as RLU
T3 construct: Fab; also called anti-NOV1401 Fab IDT4
Procedure: as §1, §3
as §2, with “After washing the plate again three times, 30 μl of detection reagent (LumiGLO Peroxidase Chemiluminescent Substrate, KPL #54-61-01) was added to each well.” left out

IDT3 = target: B2; assay: SET: soluble NOV1401 titrated against constant IDT3 Fab; competitor is plate-bound biotinylated NOV1401; free Fab read as RLU
Procedure: as §1, §3
as §2, with “After washing the plate again three times, 30 μl of detection reagent (LumiGLO Peroxidase Chemiluminescent Substrate, KPL #54-61-01) was added to each well.” left out

IDT9 = target: T4, IDT9; assay: SET: soluble NOV1401 titrated against constant IDT9 Fab; competitor is plate-bound biotinylated NOV1401; free Fab read as RLU
T4 construct: Fab; also called anti-NOV1401 Fab IDT9
Procedure: as §1, §3
as §2, with “After washing the plate again three times, 30 μl of detection reagent (LumiGLO Peroxidase Chemiluminescent Substrate, KPL #54-61-01) was added to each well.” left out

IDT7 = target: T5, IDT7; assay: SET: soluble NOV1401 titrated against constant IDT7 Fab; competitor is plate-bound biotinylated NOV1401; free Fab read as RLU
T5 construct: Fab; also called anti-NOV1401 Fab IDT7
Procedure: as §1, §3
as §2, with “After washing the plate again three times, 30 μl of detection reagent (LumiGLO Peroxidase Chemiluminescent Substrate, KPL #54-61-01) was added to each well.” left out

IDT11 = target: T6, IDT11; assay: SET: soluble antigen (NOV1401 by the legend and Example 2, axis labelled MAA868) titrated against constant IDT11 IgG; competitor is plate-bound biotinylated NOV1401; free IgG read as RLU
T6 construct: also called anti-NOV1401 IgG IDT11; full length IgG format for IDT1
Procedure: as §1, §3
as §2, with “After washing the plate again three times, 30 μl of detection reagent (LumiGLO Peroxidase Chemiluminescent Substrate, KPL #54-61-01) was added to each well.” left out

IDT10 = target: T7, IDT10; assay: SET: soluble NOV1401 titrated against constant IDT10 Fab; competitor is plate-bound biotinylated NOV1401; free Fab read as RLU
T7 construct: Fab; also called anti-NOV1401 Fab IDT10
Procedure: as §1, §3
as §2, with “After washing the plate again three times, 30 μl of detection reagent (LumiGLO Peroxidase Chemiluminescent Substrate, KPL #54-61-01) was added to each well.” left out

IDT5 = target: T8, IDT5; assay: SET: soluble NOV1401 titrated against constant IDT5 Fab; competitor is plate-bound biotinylated NOV1401; free Fab read as RLU
T8 construct: Fab; also called anti-NOV1401 Fab IDT5
Procedure: as §1, §3
as §2, with “After washing the plate again three times, 30 μl of detection reagent (LumiGLO Peroxidase Chemiluminescent Substrate, KPL #54-61-01) was added to each well.” left out

IDT12 = target: B3; assay: SET: soluble antigen (NOV1401 by the legend and Example 2, axis labelled MAA868) titrated against constant IDT12 IgG; competitor is plate-bound biotinylated NOV1401; free IgG read as RLU
Procedure: as §1, §3
as §2, with “After washing the plate again three times, 30 μl of detection reagent (LumiGLO Peroxidase Chemiluminescent Substrate, KPL #54-61-01) was added to each well.” left out

aPTT percentage reversal, NOV1401/anti NOV1401 ratio 1/1 (n/n) (NOV1401 [1])	aPTT percentage reversal, NOV1401/anti NOV1401 ratio 1/3 (n/n) (NOV1401 [1])	aPTT percentage reversal, NOV1401/anti NOV1401 ratio 1/10 (n/n) (NOV1401 [1])	Kd (NOV1401 [2])	binding result [3]	TGA percentage reversal, NOV1401/anti NOV1401 ratio 1/1 (n/n) (NOV1401 [4])	TGA percentage reversal, NOV1401/anti NOV1401 ratio 1/3 (n/n) (NOV1401 [4])	TGA percentage reversal, NOV1401/anti NOV1401 ratio 1/10 (n/n) (NOV1401 [4])	Kd (NOV1401 [5])	Kd (NOV1401 [6])	binding result (IDT8)	TGA in human plasma: IC50 of NOV1401 for reduction of peak thrombin [7]	binding result (IDT4)	binding result (IDT3)	binding result (IDT9)	binding result (IDT7)	IC50 (read off the curve) (IDT11)	binding result (IDT10)	binding result (IDT5)	IC50 (read off the curve) (IDT12)	Binder
12%	45%	64%	0.11 nM	no binding	49%	55%	55%	0.44 nM	–	–	–	–	–	–	–	–	–	–	–	B1
9%	35%	58%	0.1 nM	no binding	31%	47%	67%	0.24 nM	–	–	–	–	–	–	–	–	–	–	–	B2
9%	51%	61%	–	–	60%	64%	62%	–	0.0051 nM	–	–	–	–	–	–	–	–	–	–	B3
–	–	–	–	–	–	–	–	–	–	binds	50 nM	binds	binds	binds	binds	~0.008 nM	binds	binds	~0.01 nM	B4
